Measurements taken from the supplement of paper PMC6755084.

B1: minF1; a variant is named by its letters at N, in order (parent)
chain: GAGACCGCAACTGAAAAGTTGTTNNNNAANNNNGGNTNNATTTCTGCACGTAGAAGCAAAAGGC

Variants of: B1
Experiment: fraction ligated after 30 min (ligated reads / total reads); higher = more ligase activity
Conditions: with F1*subA RNA substrate (template-directed ligation), 42 °C
Method: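 Chip-synthesised pool of minF1 ligase ribozyme variants (single and double substitutions, single to quadruple deletions, bulge and P2 designed variants) was transcribed with T7 and reacted as a pool with excess substrate F1*subA for 30 min at 42 C in 50 mM EPPS pH 8.5, 25 mM MgCl2. Ligated and unligated RNAs were separated by PAGE, barcoded by RT and deep sequenced; fraction ligated = ligated reads / total reads, relative activity = FL / FL of wild-type minF1 (0.76); sequencing FL correlated with PAGE (R2 = 0.98). Sequences are the DNA template of the ribozyme.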

Point of comparison: AAGAGATGTGA A29T, fraction ligated 0.00363. Against it:
- GAAAGATGTGA T23A A28T A29G — lower, 0.00194
- AAAAGGAGTGA A29T — lower, 0.00356
- AAGAGGATTGA A29T — higher, 0.007
- TAAAGGAGTGA A29T — lower, 0.00185
- TAGAGGTGTGA — higher, 0.00375
- TAGAGGATGTG A29T — higher, 0.0045
- TAGAGATGTGA — lower, 0.00183
- CAAAGGATTGA A29T — lower, 0.0034
- CAAAGGTGTGA A29T — lower, 0.00133
- CAGAGGTGTGA A29T — higher, 0.00368
- CAGAGATGTGA A29T — lower, 0.00205
- CAGAGATGTGA A29G — lower, 0.00315
- TAAAGGAGTGA T23A A29T — higher, 0.00645
- AAGAGATGTGA A28T A29G — higher, 0.00397
- GAAAGATGTGA T23C A28T A29G — lower, 0.00212
- TAGAGATGTGA A28T A29G — higher, 0.00491
- AAGAGGATGTG A29T — higher, 0.00669
- AAAAGGATTGA A29T — lower, 0.00197
- TAAAGATGTGA T23A A29G — lower, 0.00271
- TAAAGATGTGA T23A A29T — lower, 0.00358
- CAGAGATGTGA — higher, 0.00372
- CAGAGATGTGA A28T A29G — higher, 0.00451
- CAGAGGATTGA A29T — higher, 0.0052
- CAGAGGTGTGA — higher, 0.00486
- TAAAGGATTGA T23A A29T — lower, 0.00317
- AAGAGGATGTA A29T — lower, 0.00173
- CAAAGGATTGA T23A A29T — higher, 0.00487
- TAGAGATGTGA T23A A28T A29G — higher, 0.00684
- CAGAGGATGTA — lower, 0.000794
- CAGAGGATGTG — higher, 0.00526
- AAAAGATGTGA T23A A28T A29G — higher, 0.00631
- TAAAGGATGTG T23A A29T — higher, 0.00674
- CAAAGGAGTGA A29T — lower, 0.00216
- TAGAGGATGTA A29T — lower, 0.00262
- TAGAGGAGTGA T23A — lower, 0.0026
- AAGAGATGTGA — lower, 0.00157
- TAGAGGTGTGA T23A — lower, 0.00196
- AAAAGGATGTG A29T — lower, 0.00334
- CAGAGGATGTA A29T — higher, 0.00385
- CAGAGGAGTGA T23A A29T — lower, 0.000641
- TAGAGATGTGA A29T — higher, 0.00374
- TAGAGATGTGA A29G — higher, 0.00391
- AAAAGATGTGA A28T A29G — higher, 0.00466
- TAAAGGTGTGA A29T — lower, 0.0019
- TAAAGATGTGA T23A A28T A29G — higher, 0.00461
- TAAAGATGTGA A29T — lower, 0.00224
- TAAAGATGTGA A29G — lower, 0.00158
- GAAAGATGTGA A28T A29G — lower, 0.00247
- AAGAGATGTGA A29G — higher, 0.00367
- CAGAGATGTGA T23A — lower, 0.00241
- TAAAGGATGTA T23A A29T — lower, 0.000932
- AAGAGGTGTGA — lower, 0.00286
- TAGAGGATTGA — lower, 0.00125
- CAAAGGATGTG A29T — higher, 0.0079
- CAAAGATGTGA A28T A29G — lower, 0.00352
- AAGAGGATTGA — lower, 0.00146
- CAAAGGTGTGA T23A A29T — lower, 0.00303
- CAGAGGATGTG A29T — higher, 0.0108
- TAGAGGATTGA A29T — higher, 0.00809
- CAGAGGTGTGA T23A — lower, 0.00265
- CAGAGGATTGA — lower, 0.00276
- TAGAGGATGTG T23A A29T — higher, 0.00945
- CAGAGGATTGA T23A — lower, 0.00223
- CAGAGGATGTA T23A A29T — higher, 0.00576
- CAGAGGATGTG T23A — higher, 0.00549
- TAGAGATGTGA T23A A29T — lower, 0.00334
- TAGAGATGTGA T23A A29G — lower, 0.00131
- TAGAGGATGTA — lower, 0.000988
- TAGAGGATGTG — lower, 0.00216
- AAGAGGTGTGA A29T — lower, 0.00145
- TAGAGGAGTGA T23A A29T — lower, 0.00307
- CAGAGATGTGA T23A A28T A29G — lower, 0.00252
- CAGAGATGTGA T23A A29T — lower, 0.00283
- CAGAGATGTGA T23A A29G — lower, 0.00348
- AAGAGGAGTGA — lower, 0.00337
- CAAAGATGTGA T23A A29T — lower, 0.00168
- CAAAGATGTGA T23A A29G — lower, 0.00234
- AAGAGGATGTG — higher, 0.00366
- AAGAGGATGTA — lower, 0.000999
- AAAAGATGTGA T23C A28T A29G — lower, 0.00238
- TAAAGGATGTG A29T — higher, 0.00445
- CAGAGGATGTA T23A — lower, 0.00339
- CAGAGGATGTG T23A A29T — higher, 0.0132
